Data: US20240092919A1 (Ablynx, published 2024)

T1: Cynomolgus TCR(AEA41865/AEA41866)-zipper protein (cynomolgus monkey)
T1 construct: also called cyTCR-zipper protein; cynoTCR zipper
T1 TCR alpha: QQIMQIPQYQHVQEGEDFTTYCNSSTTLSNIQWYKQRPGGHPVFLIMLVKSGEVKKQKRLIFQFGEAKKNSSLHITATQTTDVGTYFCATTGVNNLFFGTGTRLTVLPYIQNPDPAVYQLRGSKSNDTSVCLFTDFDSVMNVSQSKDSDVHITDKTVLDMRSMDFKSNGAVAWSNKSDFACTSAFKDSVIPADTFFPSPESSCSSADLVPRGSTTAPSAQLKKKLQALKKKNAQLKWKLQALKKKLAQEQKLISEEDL
T1 TCR beta: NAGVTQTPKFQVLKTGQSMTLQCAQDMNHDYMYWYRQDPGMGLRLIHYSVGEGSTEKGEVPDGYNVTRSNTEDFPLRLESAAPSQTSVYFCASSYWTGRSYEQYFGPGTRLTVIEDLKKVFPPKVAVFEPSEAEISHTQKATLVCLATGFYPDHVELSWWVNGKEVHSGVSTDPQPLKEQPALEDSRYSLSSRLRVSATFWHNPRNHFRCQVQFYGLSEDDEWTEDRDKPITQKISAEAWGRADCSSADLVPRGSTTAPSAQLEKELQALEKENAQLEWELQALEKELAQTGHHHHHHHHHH

T2: Human T cell receptor on human primary T cells (human, UniProt P01848 1-140; P01850 1-176)
T2 TCR alpha (looked up): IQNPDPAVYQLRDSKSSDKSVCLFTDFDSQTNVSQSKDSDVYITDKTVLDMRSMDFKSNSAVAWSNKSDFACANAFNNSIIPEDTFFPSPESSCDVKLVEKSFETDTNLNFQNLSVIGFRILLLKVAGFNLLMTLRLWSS
T2 TCR beta (looked up): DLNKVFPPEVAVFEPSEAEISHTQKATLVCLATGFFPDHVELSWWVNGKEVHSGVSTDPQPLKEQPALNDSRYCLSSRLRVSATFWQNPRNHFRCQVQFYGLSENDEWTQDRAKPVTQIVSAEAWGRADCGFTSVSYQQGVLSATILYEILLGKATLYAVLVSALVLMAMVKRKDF


Biological target: T1, Cynomolgus …
Experiment: SPR ProteOn off-rate screen
From the text: (§1) Unique ISVD clones, i.e. clones with a unique sequence, were subsequently selected and screened to determine their off-rate. To this purpose, the ISVD containing periplasmic extracts were screened on huTCR-zipper and cyTCR-zipper protein by SPR on a ProteOn XPR36 instrument. The zipper proteins were immobilized on a GLC sensor chip (between 4300 and 5100RU) via amine coupling chemistry, using EDC/sulfo-NHS for activation of the carboxyl groups on the chip surface (running buffer: HBS-EP+, pH7.4). Periplasmic extracts were injected at 1/10 dilution for 2 min (at a flow rate of 45 μL/min) and dissociation was followed for 900 s. A pulse of 100 s of 3 M MgCl2 at 45 μL/min was used for regeneration. […] Processed sensorgrams were fitted with the Langmuir model (1:1 interaction) using ProteOn Manager 3.1.0 (Version 3.1.0.6) software.
Wherever % Lysis, T cell mediated MOLM-13 cell killing, human primary T cells, E:T 10:1 is given: test concentration or dose not given here.

| Binder | koff |
| --- | --- |
| T017000161 (VHH) VHH: EVQLVESGGGVVQPGGSLRLSCVASGEVHKINFLGWYRQAPGKEREKVAHISIGDQTDYADSAKGRFTISRDESKNMVYLQMNSLRPEDTALYFCRAFSRIYPYDYWGQGTLVTVSS | 0.00624 s⁻¹ |
| T017000196 (VHH) VHH: EVQLVESGGGVVQPGGSLRLSCVASGDVHKIFFLGWYRQAPGKEREKVAHISIGDQTDYADSAKGRFTISRDESKNMVYLQMNSLRPEDTALYFCRAFSRIYPYDYWGQGTLVTVSS | 0.00419 s⁻¹ |
| T017000163 (VHH, also called T017000745) VHH: EVQLVESGGGVVQPGGSLRLSCVASGDVHQINFLGWYRQAPGKEREKVAHISIGDQTDYADSAKGRFTISRDESKNMVYLQMNSLRPEDTALYFCRAFSRIYPYDYWGQGTLVTVSS | 0.00642 s⁻¹ |
| T017000173 (VHH) VHH: EVQLVESGGGVVQPGGSLRLSCVASGDVHKINVLGWYRQAPGKEREKVAHISIGDQTDYADSAKGRFTISRDESKNMVYLQMNSLRPEDTALYFCRAFSRIYPYDYWGQGTLVTVSS | 0.00903 s⁻¹ |
| T017000188 (VHH) VHH: EVQLVESGGGVVQPGGSLRLSCVASGAVHKINFLGWYRQAPGKEREKVAHISIGDQTDYADSAKGRFTISRDESKNMVYLQMNSLRPEDTALYFCRAFSRIYPYDYWGQGTLVTVSS | 0.00389 s⁻¹ |
| T017000185 (VHH) VHH: EVQLVESGGGVVQPGGSLRLSCVASGDVHKINFFGWYRQAPGKEREKVAHISIGDQTDYADSAKGRFTISRDESKNMVYLQMNSLRPEDTALYFCRAFSRIYPYDYWGQGTLVTVSS | 0.0114 s⁻¹ |
| T017000176 (VHH) VHH: EVQLVESGGGVVQPGGSLRLSCVASGDVHKLNFLGWYRQAPGKEREKVAHISIGDQTDYADSAKGRFTISRDESKNMVYLQMNSLRPEDTALYFCRAFSRIYPYDYWGQGTLVTVSS | 0.00791 s⁻¹ |
| T017000170 (VHH) VHH: EVQLVESGGGVVQPGGSLRLSCVASGDVHKINYLGWYRQAPGKEREKVAHISIGDQTDYADSAKGRFTISRDESKNMVYLQMNSLRPEDTALYFCRAFSRIYPYDYWGQGTLVTVSS | 0.00806 s⁻¹ |
| T017000177 (VHH) VHH: EVQLVESGGGVVQPGGSLRLSCVASGSVHKINFLGWYRQAPGKEREKVAHISIGDQTDYADSAKGRFTISRDESKNMVYLQMNSLRPEDTALYFCRAFSRIYPYDYWGQGTLVTVSS | 0.00325 s⁻¹ |
| T017000164 (VHH) VHH: EVQLVESGGGVVQPGGSLRLSCVASGYVHKINFLGWYRQAPGKEREKVAHISIGDQTDYADSAKGRFTISRDESKNMVYLQMNSLRPEDTALYFCRAFSRIYPYDYWGQGTLVTVSS | 0.00412 s⁻¹ |
| T017000166 (VHH) VHH: EVQLVESGGGVVQPGGSLRLSCVASGDVHKINFYGWYRQAPGKEREKVAHISIGDQTDYADSAKGRFTISRDESKNMVYLQMNSLRPEDTALYFCRAFSRIYPYDYWGQGTLVTVSS | 0.00825 s⁻¹ |
| T017000179 (VHH) VHH: EVQLVESGGGVVQPGGSLRLSCVASGDVHKINFLTWYRQAPGKEREKVAHISIGDQTDYADSAKGRFTISRDESKNMVYLQMNSLRPEDTALYFCRAFSRIYPYDYWGQGTLVTVSS | 0.00775 s⁻¹ |
| T017000208 (VHH) VHH: EVQLVESGGGVVQPGGSLRLSCVASYDVHKINFLGWYRQAPGKEREKVAHISIGDQTDYADSAKGRFTISRDESKNMVYLQMNSLRPEDTALYFCRAFSRIYPYDYWGQGTLVTVSS | 0.0147 s⁻¹ |
| T017000174 (VHH) VHH: EVQLVESGGGVVQPGGSLRLSCVASWDVHKINFLGWYRQAPGKEREKVAHISIGDQTDYADSAKGRFTISRDESKNMVYLQMNSLRPEDTALYFCRAFSRIYPYDYWGQGTLVTVSS | 0.00791 s⁻¹ |
| T017000200 (VHH) VHH: EVQLVESGGGVVQPGGSLRLSCVASGDVHKINFLRWYRQAPGKEREKVAHISIGDQTDYADSAKGRFTISRDESKNMVYLQMNSLRPEDTALYFCRAFSRIYPYDYWGQGTLVTVSS | 0.058 s⁻¹ |
| T017000190 (VHH) VHH: EVQLVESGGGVVQPGGSLRLSCVASGDVHKINFLSWYRQAPGKEREKVAHISIGDQTDYADSAKGRFTISRDESKNMVYLQMNSLRPEDTALYFCRAFSRIYPYDYWGQGTLVTVSS | 0.0107 s⁻¹ |
| T017000180 (VHH) VHH: EVQLVESGGGVVQPGGSLRLSCVASQDVHKINFLGWYRQAPGKEREKVAHISIGDQTDYADSAKGRFTISRDESKNMVYLQMNSLRPEDTALYFCRAFSRIYPYDYWGQGTLVTVSS | 0.00998 s⁻¹ |

Biological target: T1, Cynomolgus …
Experiment: SPR ProteOn off-rate screen
Remark: another data set of the same source
From the text: as §1

| Binder | koff |
| --- | --- |
| T017000233 (VHH) VHH: EVQLVESGGGVVQPGGSLRLSCVASGDVHKINFLGWYRQAPGKEREKVAHISIGDQSDYADSAKGRFTISRDESKNMVYLQMNSLRPEDTALYFCRAFSRIYPYDYWGQGTLVTVSS | 0.0102 s⁻¹ |
| T017000245 (VHH) VHH: EVQLVESGGGVVQPGGSLRLSCVASGDVHKINFLGWYRQAPGKEREKVAHISIADQTDYADSAKGRFTISRDESKNMVYLQMNSLRPEDTALYFCRAFSRIYPYDYWGQGTLVTVSS | 0.00936 s⁻¹ |
| T017000234 (VHH) VHH: EVQLVESGGGVVQPGGSLRLSCVASGDVHKINFLGWYRQAPGKEREKVAMISIGDQTDYADSAKGRFTISRDESKNMVYLQMNSLRPEDTALYFCRAFSRIYPYDYWGQGTLVTVSS | 0.0118 s⁻¹ |
| T017000238 (VHH) VHH: EVQLVESGGGVVQPGGSLRLSCVASGDVHKINFLGWYRQAPGKEREKVAHISIGDETDYADSAKGRFTISRDESKNMVYLQMNSLRPEDTALYFCRAFSRIYPYDYWGQGTLVTVSS | 0.00957 s⁻¹ |
| T017000223 (VHH) VHH: EVQLVESGGGVVQPGGSLRLSCVASGDVHKINFLGWYRQAPGKEREKVAHISIGDQADYADSAKGRFTISRDESKNMVYLQMNSLRPEDTALYFCRAFSRIYPYDYWGQGTLVTVSS | 0.0109 s⁻¹ |
| T017000235 (VHH) VHH: EVQLVESGGGVVQPGGSLRLSCVASGDVHKINFLGWYRQAPGKEREKVAHISIGDHTDYADSAKGRFTISRDESKNMVYLQMNSLRPEDTALYFCRAFSRIYPYDYWGQGTLVTVSS | 0.011 s⁻¹ |
| T017000241 (VHH) VHH: EVQLVESGGGVVQPGGSLRLSCVASGDVHKINFLGWYRQAPGKEREKVAHISIGDQTNYADSAKGRFTISRDESKNMVYLQMNSLRPEDTALYFCRAFSRIYPYDYWGQGTLVTVSS | 0.0167 s⁻¹ |
| T017000232 (VHH) VHH: EVQLVESGGGVVQPGGSLRLSCVASGDVHKINFLGWYRQAPGKEREKVAHISIGDQVDYADSAKGRFTISRDESKNMVYLQMNSLRPEDTALYFCRAFSRIYPYDYWGQGTLVTVSS | 0.00895 s⁻¹ |
| T017000231 (VHH) VHH: EVQLVESGGGVVQPGGSLRLSCVASGDVHKINFLGWYRQAPGKEREKVAVISIGDQTDYADSAKGRFTISRDESKNMVYLQMNSLRPEDTALYFCRAFSRIYPYDYWGQGTLVTVSS | 0.00867 s⁻¹ |

Biological target: T2, Human T cell receptor on human primary …
Experiment: cell-based or functional assay

| Binder | % Lysis, T cell mediated MOLM-13 cell killing, human primary T cells, E:T 10:1 | EC50 (M), T cell mediated MOLM-13 cell killing, human primary T cells, E:T 10:1 |
| --- | --- | --- |
| T017000628 (bispecific antibody) DVQLVESGGGVVQPGGSLRLSCVASYDVHKINFYGWYRQAPGKEREKVAHISIGDQTDYADSAKGRFTISRDESKNTVYLQMNSLRPEDTALYYCRALSKIWPYDYWGQGTLVTVSSGGGGSGGGGSGGGGSGGGGSGGGGSGGGGSGGGGSEVQLVESGGGLVQAGGSLRLSCAASGITSKINDMGWYRQTPGNYREWVASITATGTTNYRDSVKGRFTISRDNAKSTVYLQMNSLKPEDTTVYYCNTFPPISNFWGQGTLVTVSSA | 39% | 1.6e-10 M |

biological target: Cynomolgus T cell receptor on cynomolgus primary T cells (cynomolgus monkey); experiment: cell-based or functional assay; on % Lysis, T cell mediated MOLM-13 cell killing, cynomolgus primary T cells, E:T 10:1: test concentration or dose not given here

| Binder | % Lysis, T cell mediated MOLM-13 cell killing, cynomolgus primary T cells, E:T 10:1 | EC50 (M), T cell mediated MOLM-13 cell killing, cynomolgus primary T cells, E:T 10:1 |
| --- | --- | --- |
| T017000628 (bispecific antibody) DVQLVESGGGVVQPGGSLRLSCVASYDVHKINFYGWYRQAPGKEREKVAHISIGDQTDYADSAKGRFTISRDESKNTVYLQMNSLRPEDTALYYCRALSKIWPYDYWGQGTLVTVSSGGGGSGGGGSGGGGSGGGGSGGGGSGGGGSGGGGSEVQLVESGGGLVQAGGSLRLSCAASGITSKINDMGWYRQTPGNYREWVASITATGTTNYRDSVKGRFTISRDNAKSTVYLQMNSLKPEDTTVYYCNTFPPISNFWGQGTLVTVSSA | 40% | 2e-11 M |

Biological target: T1, Cynomolgus …
Experiment: SPR ProteOn off-rate screen
Remark: another data set of the same source

| Binder | koff |
| --- | --- |
| T017000163 (VHH, also called T017000745) VHH: EVQLVESGGGVVQPGGSLRLSCVASGDVHQINFLGWYRQAPGKEREKVAHISIGDQTDYADSAKGRFTISRDESKNMVYLQMNSLRPEDTALYFCRAFSRIYPYDYWGQGTLVTVSS | 0.00701 s⁻¹ |
